[ ]: non-standard residue; d: D form. SeMet = C[Se]CC[C@H](N)C(=O)O

These results are taken from paper PMC3325190 (PLoS Pathogens, 2012).

One series concerns the target T1, AmrZ WT (Pseudomonas aeruginosa PAO1, UniProt G3XCY4 1-108).
T1 sequence: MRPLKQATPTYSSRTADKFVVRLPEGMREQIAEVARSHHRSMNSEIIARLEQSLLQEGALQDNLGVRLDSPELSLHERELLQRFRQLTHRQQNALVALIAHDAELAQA
Kind of series: fluorescence anisotropy. The following applies: protein: recombinant; tags: N-terminal poly-His with 3C site, cleaved by PreScission; chain copies: 4; blunt. A general note: In fluorescence polarisation assays a small probe gives low polarisation when free and higher when bound to something large.

For another series, the target named is T2, AmrZ delta42 (Pseudomonas aeruginosa PAO1, UniProt G3XCY4 1-66).
T2 sequence: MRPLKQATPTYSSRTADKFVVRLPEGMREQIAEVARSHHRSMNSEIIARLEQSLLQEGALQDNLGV
The series is described as follows: X-ray crystal structure (3.1 A); 50 mM MgSO4; SeMet protein; 100 mM Bis-Tris pH 6.5, 150 mM NaCl, 5% glycerol, 100 ug/ml BSA, 100 nM nonspecific DNA, 1 nM 6-FAM 22-mer, 25 C. The following applies: protein: recombinant; tags: N-terminal poly-His with 3C site, cleaved by PreScission; chain copies: 4.

Series [1] concerns the molecule itself. The series is described as follows: crystal structure; Se-Met Δ42 AmrZ in complex with 18 bp amrZ1 DNA; hanging drop vapor diffusion at 25°C, 3% PEG8K, 0.1 M MES pH 6.0, 0.15 M NaCl, 2 mM TCEP, 50 mM MgSO4; 3.1 Å; dimer and dimer of dimers seen on the DNA.

B1: m16 algD (dsDNA)
DNA 1: CATTGGCCATTACCATCCTCCC
DNA 2: GGGAGGATGGTAATGGCCAATG
One may read the Kd as the concentration at which binding is half-saturated. As to B1, the Kd with AmrZ WT came out at 203 ± 17 nM.

B2: WT algD (dsDNA)
DNA 1: CATTGGCCATTACCAGCCTCCC
DNA 2: GGGAGGCTGGTAATGGCCAATG
With B2, the Kd in the series with AmrZ WT turned out to be 198 ± 14 nM.

B3: GTC amrZ1 (dsDNA)
DNA 1: GTACTGTCAAAACGACGGCACG
DNA 2: CGTGCCGTCGTTTTGACAGTAC
For B3, in the series with AmrZ WT, the Kd was determined as 82.7 ± 8.6 nM.

B4: TTC/GC amrZ1 (dsDNA)
DNA 1: GTACTTTCCGCGCGAAGGCACG
DNA 2: CGTGCCTTCGCGCGGAAAGTAC
In the case of B4, the Kd in the series with AmrZ WT is 2050 ± 180 nM.

B5: CGCG amrZ1 (dsDNA)
DNA 1: GTACTGGCCGCGCGCCGGCACG
DNA 2: CGTGCCGGCGCGCGGCCAGTAC
Consider B5, for which, in the series with AmrZ WT, the dissociation constant Kd came to 63.4 ± 7.3 nM.

B6: m5 algD (dsDNA)
DNA 1: CATTTGCCATTACCAGCCTCCC
DNA 2: GGGAGGCTGGTAATGGCAAATG
B6: in the series with AmrZ WT, the equilibrium dissociation constant (Kd) is 164 ± 17 nM.

B7: m7 algD (dsDNA)
DNA 1: CATTGGACATTACCAGCCTCCC
DNA 2: GGGAGGCTGGTAATGTCCAATG
Regarding B7, in the series with AmrZ WT, the Kd was determined as 530 ± 52 nM.

B8: amrZ1 18 bp crystal oligo (dsDNA)
DNA 1: ACTGGCAAAACGCCGGCA
DNA 2: TGCCGGCGTTTTGCCAGT
As to B8, the binding result with AmrZ delta42 is recorded as “binds”.

B9: m14 algD (dsDNA)
DNA 1: CATTGGCCATTACAAGCCTCCC
DNA 2: GGGAGGCTTGTAATGGCCAATG
As for B9, in the series with AmrZ WT, the Kd is 216 ± 17 nM.

B10: m13 algD (dsDNA)
DNA 1: CATTGGCCATTAACAGCCTCCC
DNA 2: GGGAGGCTGTTAATGGCCAATG
For the molecule B10, the dissociation constant (Kd) with AmrZ WT is 256 ± 20 nM.

B11: m6 algD (dsDNA)
DNA 1: CATTGTCCATTACCAGCCTCCC
DNA 2: GGGAGGCTGGTAATGGACAATG
For B11, the equilibrium dissociation constant (Kd) with AmrZ WT came to 723 ± 37 nM.

B12: Δ42 AmrZ (C-terminal truncation mutant of AmrZ, residues 1–66) (domain or fragment)
chain: [SeMet]RPLKQATPTYSSRTADKFVVRLPEG[SeMet]REQIAEVARSHHRS[SeMet]NSEIIARLEQSLLQEGALQDNLGV
notes: not shown: poly-Histidine, N-terminal, cleaved
As a reminder, the stoichiometry N is the number of molecules, sites or subunits per partner or assembly. In the case of B12, the “stoichiometry N” value in series [1] was 4.

B13: TTC amrZ1 (dsDNA)
DNA 1: GTACTTTCAAAACGAAGGCACG
DNA 2: CGTGCCTTCGTTTTGAAAGTAC
With B13, the Kd with AmrZ WT is 109 ± 13 nM.

B14: WT amrZ1 (dsDNA)
DNA 1: GTACTGGCAAAACGCCGGCACG
DNA 2: CGTGCCGGCGTTTTGCCAGTAC
As to B14, the Kd with AmrZ WT came out at 8.41 ± 0.8 nM.

B15: ATAT amrZ1 (dsDNA)
DNA 1: GTACTGGCATATCGCCGGCACG
DNA 2: CGTGCCGGCGATATGCCAGTAC
Turning to B15, the dissociation constant (Kd) with AmrZ WT is 39.1 ± 4.6 nM.

B16: m17 algD (dsDNA)
DNA 1: CATTGGCCATTACCAGACTCCC
DNA 2: GGGAGTCTGGTAATGGCCAATG
Take B16: the Kd in the series with AmrZ WT was 212 ± 19 nM.

B17: AATT amrZ1 (dsDNA)
DNA 1: GTACTGGCAATTCGCCGGCACG
DNA 2: CGTGCCGGCGAATTGCCAGTAC
Consider B17, for which the Kd with AmrZ WT came to 58.6 ± 7.5 nM.

B18: m8 algD (dsDNA)
DNA 1: CATTGGCAATTACCAGCCTCCC
DNA 2: GGGAGGCTGGTAATTGCCAATG
B18: in the series with AmrZ WT, the Kd came to 365 ± 30 nM.

B19: TTTT amrZ1 (dsDNA)
DNA 1: GTACTGGCTTTTCGCCGGCACG
DNA 2: CGTGCCGGCGAAAAGCCAGTAC
Turning to B19, the dissociation constant (Kd) with AmrZ WT worked out at 41.7 ± 5.1 nM.
